Source: publication PMC8684761 (Molecular Biology of the Cell, 2021)

Target: T1, 6His-She1 C-terminal fragment (residues 194-338) (S. cerevisiae, UniProt P38200 194-338)
T1 sequence (looked up): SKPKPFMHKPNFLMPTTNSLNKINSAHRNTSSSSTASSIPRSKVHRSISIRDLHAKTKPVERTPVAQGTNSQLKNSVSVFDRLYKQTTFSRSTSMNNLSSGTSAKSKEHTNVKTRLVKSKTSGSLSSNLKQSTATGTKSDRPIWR
Assay: pull-down

binding result: binds
B1: peptide encompassing the C-terminus of Tub1 (amino acids 415-447), wild type (peptide)
peptide: not shown
